From patent publication US12673101B2, “Varicella zoster” (ADJUVANCE TECHNOLOGIES, INC., priority 2019, dated 2026)
Counter-ions that a name gives are not always drawn.

Key:
Assay type in all cases: in vivo, Varicella zoster virus
[1] = system: gE antigen; test: Mice immunized with gE, TQL-1055 choline salt with or without PHAD liposomes (Example 2): anti-gE IgG endpoint titers
Description: The impact of TQL-1055 choline salt (Compound I-4 choline salt) on antibody titers induced by gE antigen was tested. Mice were immunized with gE (5 mcg) alone, gE (5 mcg) with liposomes containing PHAD (5 mcg), gE (5 mcg) with liposomes containing PHAD (5 mcg) and TQL-1055 choline salt (five groups: 5 mcg, 10 mcg, 20 mcg, 40 mcg, 80 mcg), and gE (5 mcg) with TQL-1055 choline salt (five groups: 5 mcg, 10 mcg, 20 mcg, 40 mcg, 80 mcg). Mice were immunized at Day 0 and Day 14. Groups were bled at Day 13 (post Dose 1) and Day 28 (post Dose 2) for serum analysis.

[2] = system: gE antigen; test: Mice immunized with gE and liposomal adjuvant (Example 1): gE-specific total IgG1 titers
Description: (§1) The impact of TQL-1055 free acid (Compound I-4 free acid) on antibody titers induced by gE antigen was tested. Mice were immunized with gE (5 mcg) alone, gE (5 mcg) with blank liposomes, gE (5 mcg) with liposomes containing PHAD (7.5 mcg), gE (5 mcg) with liposomes containing PHAD (7.5 mcg) and TQL-1055 free acid (four groups: 5 mcg, 15 mcg, 30 mcg, 50 mcg), and gE (5 mcg) with liposomes containing MPL® (7.5 mcg) and QS-21 (5 mcg). Mice were immunized at Day 0 and Day 14. Groups were bled at Day 14 (post Dose 1) and Day 28 (post Dose 2) for serum analysis for anti-gE specific antibody response.
(§2) Log 10 transformed GMT were compared using One-way ANOVA. Groupwise comparisons were made and p-values adjusted for multiple comparisons with Tukey's post-hoc test. Groups 1 and 2 were excluded from the analysis. Family-wise α=0.05.

[3] = system: gE antigen; test: Mice immunized with gE and liposomal adjuvant (Example 1): gE-specific total IgG2c titers; settings: post dose 1, 50 mcg TQL-1055 free acid with PHAD liposomes
Description: as §1, §2

[4] = system: gE antigen; test: Mice immunized with gE and liposomal adjuvant (Example 1): gE-specific total IgG titers
Description: as §1, §2

[5] = system: gE antigen; test: Mice immunized with gE, oil-in-water emulsion (L2), TQL-1055 and PHAD liposomes (Example 3): anti-gE IgG endpoint titers; settings: mice immunized Day 0 and Day 14
Description: The impact of an oil-in-water emulsion containing TQL-1055 free acid (Compound I-4 free acid), TQL-1055 choline salt (Compound I-4 choline salt), PHAD liposomes, and combinations thereof on antibody titers induced by gE antigen was tested. Mice were immunized with PBS alone, gE (5 mcg) alone, gE (5 mcg) in an oil-in-water emulsion (L2), gE (5 mcg) and TQL-1055 choline salt (three groups: 5 mcg, 30 mcg, 100 mcg), gE (5 mcg) in an oil-in-water emulsion (L2) with TQL-1055 free acid (three groups: 5 mcg, 30 mcg, 100 mcg), gE (5 mcg) in an oil-in-water emulsion (L2) with TQL-1055 free acid (three groups: 5 mcg, 30 mcg, 100 mcg) and PHAD liposomes (20 mcg), and gE (5 mcg) with PHAD liposomes (20 mcg). Mice were immunized at Day 0 and Day 14. Groups were bled at Day 13 (post Dose 1) and Day 28 (post Dose 2) for serum analysis.

[6] = mice immunized Day 0 and Day 14, serum Day 28 (post Dose 2)

CC1O[C@@H](OC2C(O)[C@@H](NC(=O)CCCCCCCCCCC(=O)O)C(CO)O[C@H]2OC(=O)[C@]23CCC(C)(C)CC2C2=CCC4C5(C)CC[C@H](O)C(C)(C=O)C5CCC4(C)[C@]2(C)CC3O)C(O)C(O)[C@H]1O[C@@H]1OC[C@@H](O)C(O)C1O (stereo partly shown) [TQL-1055 choline salt]
titers compared to groups including TQL-1055 free acid (Example 1) ([1]; after the first dose): trend to higher titers | titers compared to groups including TQL-1055 free acid (Example 1) ([1]; after the second dose): trend to higher titers

CC1O[C@@H](OC2C(O)[C@@H](NC(=O)CCCCCCCCCCC(=O)O)C(CO)O[C@H]2OC(=O)[C@]23CCC(C)(C)CC2C2=CCC4C5(C)CC[C@H](O)C(C)(C=O)C5CCC4(C)[C@]2(C)CC3O)C(O)C(O)[C@H]1O[C@@H]1OC[C@@H](O)C(O)C1O (stereo partly shown) [TQL-1055 free acid]
gE-specific IgG1 GMT compared to Group 7 ([2]; mice, post dose 1, 50 mcg TQL-1055 free acid with PHAD liposomes): significantly higher | gE-specific IgG2c GMT compared to Group 7 [3]: significantly higher | gE-specific total IgG GMT compared to Group 7 ([4]; mice, post dose 2, 50 mcg TQL-1055 free acid with PHAD liposomes, not statistically significant): trended higher

B1: 5 mcg gE alone: VZV glycoprotein E (gE) antigen, 5 mcg, without adjuvant (protein, UniProt P09259 31-623, looked up)
Envelope glycoprotein E: SVLRYDDFHTDEDKLDTNSVYEPYYHSDHAESSWVNRGESSRKAYDHNSPYIWPRNDYDGFLENAHEHHGVYNQGRGIDSGERLMQPTQMSAQEDLGDDTGIHVIPTLNGDDRHKIVNVDQRQYGDVFKGDLNPKPQGQRLIEVSVEENHPFTLRAPIQRIYGVRYTETWSFLPSLTCTGDAAPAIQHICLKHTTCFQDVVVDVDCAENTKEDQLAEISYRFQGKKEADQPWIVVNTSTLFDELELDPPEIEPGVLKVLRTEKQYLGVYIWNMRGSDGTSTYATFLVTWKGDEKTRNPTPAVTPQPRGAEFHMWNYHSHVFSVGDTFSLAMHLQYKIHEAPFDLLLEWLYVPIDPTCQPMRLYSTCLYHPNAPQCLSHMNSGCTFTSPHLAQRVASTVYQNCEHADNYTAYCLGISHMEPSFGLILHDGGTTLKFVDTPESLSGLYVFVVYFNGHVEAVAYTVVSTVDHFVNAIEERGFPPTAGQPPATTKPKEITPVNPGTSPLLRYAAWTGGLAAVVLLCLVIFLICTAKRMRVKAYRVDKSPYNQSMYYAGLPVDDFEDSESTDTEEEFGNAIGGSHGGSSYTVYIDKTR
gE-specific total IgG titers post dose 1, Geometric mean ([5]; serum Day 13 (post Dose 1)): 138.0 | gE-specific total IgG titers post dose 2, Geometric mean ([5]; serum Day 28 (post Dose 2)): 5012 | gE-specific total IgG1 titers post dose 2, GMT [2, 6]: 793.1 | Day 13 Anti-gE GMT titer, 5 mcg PHAD in liposomes ([1]; Day 13 (post Dose 1), with 5 mcg PHAD in liposomes): 19,037 | Day 13 Anti-gE GMT titer, without PHAD liposomes ([1]; Day 13 (post Dose 1), without PHAD liposomes): 135 | Day 28 Anti-gE GMT titer, 5 mcg PHAD in liposomes ([1]; Day 28 (post Dose 2), with 5 mcg PHAD in liposomes): 689,865 | Day 28 Anti-gE GMT titer, without PHAD liposomes ([1]; Day 28 (post Dose 2), without PHAD liposomes): 12,311 | gE-specific total IgG titers post dose 2, GMT [4, 6]: 949.8
